Experiments:
Test in all cases: cell-based or functional assay
[1] = target: T1, Cau.Ste2, Ste2-like mating GPCR of Candida auris (Candida auris)
T1 chain: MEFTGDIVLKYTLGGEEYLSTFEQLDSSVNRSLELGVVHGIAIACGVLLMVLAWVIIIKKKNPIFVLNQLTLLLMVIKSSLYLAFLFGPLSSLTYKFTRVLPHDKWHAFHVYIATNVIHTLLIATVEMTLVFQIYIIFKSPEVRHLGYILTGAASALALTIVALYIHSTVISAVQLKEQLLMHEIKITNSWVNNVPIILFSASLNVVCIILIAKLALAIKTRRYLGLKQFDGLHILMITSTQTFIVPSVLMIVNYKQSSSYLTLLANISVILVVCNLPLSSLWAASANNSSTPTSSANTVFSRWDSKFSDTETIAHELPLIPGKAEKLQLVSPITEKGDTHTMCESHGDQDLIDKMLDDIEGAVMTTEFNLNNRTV

[2] = target: T2, Ct.Ste2, Ste2-like mating GPCR of Candida tropicalis (Candida tropicalis)
T2 chain: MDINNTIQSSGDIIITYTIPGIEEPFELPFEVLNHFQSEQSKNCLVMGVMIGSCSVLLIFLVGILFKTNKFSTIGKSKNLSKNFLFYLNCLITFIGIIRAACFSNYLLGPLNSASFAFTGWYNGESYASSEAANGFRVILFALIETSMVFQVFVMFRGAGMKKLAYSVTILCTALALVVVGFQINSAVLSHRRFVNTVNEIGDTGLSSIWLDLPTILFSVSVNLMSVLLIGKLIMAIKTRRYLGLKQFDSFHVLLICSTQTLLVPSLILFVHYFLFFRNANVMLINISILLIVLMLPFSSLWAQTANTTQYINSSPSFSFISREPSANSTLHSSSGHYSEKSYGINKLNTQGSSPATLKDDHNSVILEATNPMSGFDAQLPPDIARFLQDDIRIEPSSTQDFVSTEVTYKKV

[3] = target: T3, Cg.Ste2, Ste2-like mating GPCR of Candida glabrata (Candida glabrata)
T3 chain: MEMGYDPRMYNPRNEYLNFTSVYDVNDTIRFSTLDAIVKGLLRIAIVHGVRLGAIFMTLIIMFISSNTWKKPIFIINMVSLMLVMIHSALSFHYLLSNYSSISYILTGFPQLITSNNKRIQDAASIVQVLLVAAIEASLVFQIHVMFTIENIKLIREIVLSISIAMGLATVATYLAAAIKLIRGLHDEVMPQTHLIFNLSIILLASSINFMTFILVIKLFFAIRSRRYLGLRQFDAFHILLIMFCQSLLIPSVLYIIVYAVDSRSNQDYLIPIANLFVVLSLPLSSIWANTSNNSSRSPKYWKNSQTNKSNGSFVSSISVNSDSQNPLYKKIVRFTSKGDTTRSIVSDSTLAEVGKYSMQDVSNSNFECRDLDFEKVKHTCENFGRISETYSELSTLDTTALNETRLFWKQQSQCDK

[4] = target: T4, Zr.Ste2, Ste2-like mating GPCR of Zygosaccharomyces rouxii (Zygosaccharomyces rouxii)
T4 chain: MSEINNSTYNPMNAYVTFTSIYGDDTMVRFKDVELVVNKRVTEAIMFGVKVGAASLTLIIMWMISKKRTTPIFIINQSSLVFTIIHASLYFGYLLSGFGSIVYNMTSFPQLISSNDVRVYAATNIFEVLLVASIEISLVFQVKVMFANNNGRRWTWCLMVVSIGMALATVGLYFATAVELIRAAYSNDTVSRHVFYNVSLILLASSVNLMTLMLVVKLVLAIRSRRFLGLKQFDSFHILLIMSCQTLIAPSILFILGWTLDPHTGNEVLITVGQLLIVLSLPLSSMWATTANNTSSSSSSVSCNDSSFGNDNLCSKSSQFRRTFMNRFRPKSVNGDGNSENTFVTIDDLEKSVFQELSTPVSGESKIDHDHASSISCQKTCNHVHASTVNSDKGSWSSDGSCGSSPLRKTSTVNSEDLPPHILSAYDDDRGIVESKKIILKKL

[5] = target: T5, Ca.Ste2, Ste2-like mating GPCR of Candida albicans (Candida albicans)
T5 chain: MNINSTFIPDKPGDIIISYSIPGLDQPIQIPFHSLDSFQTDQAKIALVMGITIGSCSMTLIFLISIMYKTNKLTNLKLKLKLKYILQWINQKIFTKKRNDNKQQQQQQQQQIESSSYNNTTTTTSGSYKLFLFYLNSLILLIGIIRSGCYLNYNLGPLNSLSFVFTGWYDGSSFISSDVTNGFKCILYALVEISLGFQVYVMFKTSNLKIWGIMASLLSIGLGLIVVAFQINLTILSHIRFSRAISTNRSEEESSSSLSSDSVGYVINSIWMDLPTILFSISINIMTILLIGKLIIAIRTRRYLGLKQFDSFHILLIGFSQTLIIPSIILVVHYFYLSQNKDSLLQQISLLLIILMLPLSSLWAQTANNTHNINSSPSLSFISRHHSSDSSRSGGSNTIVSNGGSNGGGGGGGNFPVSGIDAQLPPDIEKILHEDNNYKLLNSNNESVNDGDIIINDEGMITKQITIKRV

[6] = target: T6, Cgu.Ste2, Ste2-like mating GPCR of Candida (Pichia) guilliermondii (Candida (Pichia) guilliermondii)
T6 chain: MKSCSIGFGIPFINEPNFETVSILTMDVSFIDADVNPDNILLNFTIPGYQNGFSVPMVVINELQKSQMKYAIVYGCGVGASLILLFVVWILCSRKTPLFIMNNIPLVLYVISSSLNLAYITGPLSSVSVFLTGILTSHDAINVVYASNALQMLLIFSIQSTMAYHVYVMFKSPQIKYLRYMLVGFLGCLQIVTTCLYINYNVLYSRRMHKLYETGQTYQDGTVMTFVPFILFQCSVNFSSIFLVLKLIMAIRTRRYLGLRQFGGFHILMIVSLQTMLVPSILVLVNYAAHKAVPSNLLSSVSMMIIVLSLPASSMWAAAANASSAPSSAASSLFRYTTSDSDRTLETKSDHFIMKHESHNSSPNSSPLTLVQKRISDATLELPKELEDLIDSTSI

[7] = target: T7, Cl.Ste2, Ste2-like mating GPCR of Candida (Clavispora) lusitaniae (Candida (Clavispora) lusitaniae)
T7 chain: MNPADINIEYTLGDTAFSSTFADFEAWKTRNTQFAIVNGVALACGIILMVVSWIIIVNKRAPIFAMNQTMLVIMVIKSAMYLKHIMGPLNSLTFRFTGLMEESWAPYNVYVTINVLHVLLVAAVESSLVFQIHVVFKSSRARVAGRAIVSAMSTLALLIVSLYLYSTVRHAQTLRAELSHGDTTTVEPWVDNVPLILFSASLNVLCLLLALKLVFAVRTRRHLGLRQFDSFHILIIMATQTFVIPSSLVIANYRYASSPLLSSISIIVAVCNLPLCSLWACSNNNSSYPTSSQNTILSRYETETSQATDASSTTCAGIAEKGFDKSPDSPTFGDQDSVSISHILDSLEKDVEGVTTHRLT

[8] = target: T8, Cn.Ste2, Ste2-like mating GPCR of Candida tenuis (Candida tenuis)
T8 chain: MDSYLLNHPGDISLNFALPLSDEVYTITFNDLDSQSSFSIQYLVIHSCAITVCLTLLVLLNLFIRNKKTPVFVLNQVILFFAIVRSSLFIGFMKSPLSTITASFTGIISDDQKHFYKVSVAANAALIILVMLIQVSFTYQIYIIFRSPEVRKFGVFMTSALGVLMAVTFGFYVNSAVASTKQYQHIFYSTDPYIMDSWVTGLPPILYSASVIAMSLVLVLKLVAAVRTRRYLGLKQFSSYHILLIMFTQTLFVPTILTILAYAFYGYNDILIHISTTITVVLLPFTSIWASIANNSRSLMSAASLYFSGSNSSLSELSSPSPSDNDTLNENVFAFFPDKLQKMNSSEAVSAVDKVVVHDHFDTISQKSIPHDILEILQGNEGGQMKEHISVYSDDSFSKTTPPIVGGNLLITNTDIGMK

[9] = target: T9, Cp.Ste2, Ste2-like mating GPCR of Candida parapsilosis (Candida parapsilosis)
T9 chain: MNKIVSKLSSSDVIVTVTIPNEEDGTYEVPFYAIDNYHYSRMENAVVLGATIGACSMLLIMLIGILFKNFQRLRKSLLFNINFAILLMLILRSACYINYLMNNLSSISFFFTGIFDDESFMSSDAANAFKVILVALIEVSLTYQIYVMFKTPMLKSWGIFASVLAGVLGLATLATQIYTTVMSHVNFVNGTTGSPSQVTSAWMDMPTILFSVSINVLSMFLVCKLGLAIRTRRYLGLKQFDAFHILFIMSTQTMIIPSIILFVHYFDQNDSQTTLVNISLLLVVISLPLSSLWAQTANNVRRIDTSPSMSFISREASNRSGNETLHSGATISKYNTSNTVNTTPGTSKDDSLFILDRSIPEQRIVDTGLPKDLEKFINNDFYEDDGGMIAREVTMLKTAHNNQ

KWGWLRFFPGEPFV [Cau peptide ligand #1 KWGWLRFFPGEPFV] was tested, and the “Bttm (FUS1p-RFP reporter)” value [1] was 50.6 fluorescence/A600 (not printed), the “EC50 (FUS1p-RFP reporter)” value [1] was -8.1 log10 M (not printed) and the “Fold Change (FUS1p-RFP reporter)” value [1] was 6.7 fold. The “Span (FUS1p-RFP reporter)” value [1] was 286 fluorescence/A600 (not printed) and the “Top (FUS1p-RFP reporter)” value [1] was 337 fluorescence/A600 (not printed).

With KFKFRLTRYGWFSPN [Ct peptide ligand #1 KFKFRLTRYGWFSPN] the “Bttm (FUS1p-RFP reporter)” value [2] was 32 fluorescence/A600 (not printed), the “EC50 (FUS1p-RFP reporter)” value [2] was -8.2 log10 M (not printed) and the “Fold Change (FUS1p-RFP reporter)” value [2] was 5.2 fold. For the same binder, the “Span (FUS1p-RFP reporter)” value [2] was 135 fluorescence/A600 (not printed) and the “Top (FUS1p-RFP reporter)” value [2] was 167 fluorescence/A600 (not printed).

WHWVRLRKGQGLF [Cg peptide ligand #1 WHWVRLRKGQGLF] was tested, and the “Bttm (FUS1p-RFP reporter)” value [3] was 30.5 fluorescence/A600 (not printed), the “EC50 (FUS1p-RFP reporter)” value [3] was -5.9 log10 M (not printed) and the “Fold Change (FUS1p-RFP reporter)” value [3] was 7 fold. The “Span (FUS1p-RFP reporter)” value [3] was 183 fluorescence/A600 (not printed) and the “Top (FUS1p-RFP reporter)” value [3] was 214 fluorescence/A600 (not printed).

HFIELDPGQPMF [Zr peptide ligand #1 (Table 3: …)] was tested, and the “Bttm (FUS1p-RFP reporter)” value [4] was 57.2 fluorescence/A600 (not printed), the “EC50 (FUS1p-RFP reporter)” value [4] was -7.4 log10 M (not printed) and the “Fold Change (FUS1p-RFP reporter)” value [4] was 1.9 fold. For the same binder, the “Span (FUS1p-RFP reporter)” value [4] was 52.7 fluorescence/A600 (not printed) and the “Top (FUS1p-RFP reporter)” value [4] was 110 fluorescence/A600 (not printed).

For GFRLTNFGYFEPG [Ca peptide ligand #1 GFRLTNFGYFEPG], the “Bttm (FUS1p-RFP reporter)” value [5] was 38.9 fluorescence/A600 (not printed), the “EC50 (FUS1p-RFP reporter)” value [5] was -7.7 log10 M (not printed) and the “Fold Change (FUS1p-RFP reporter)” value [5] was 7 fold. For the same binder, the “Span (FUS1p-RFP reporter)” value [5] was 233 fluorescence/A600 (not printed) and the “Top (FUS1p-RFP reporter)” value [5] was 272 fluorescence/A600 (not printed).

In the case of KKNSRFLTYWFFQPIM [Cgu peptide ligand #1 KKNSRFLTYWFFQPIM], the “Bttm (FUS1p-RFP reporter)” value [6] is reported as 41.2 fluorescence/A600 (not printed), the “EC50 (FUS1p-RFP reporter)” value [6] is reported as -7.4 log10 M (not printed) and the “Fold Change (FUS1p-RFP reporter)” value [6] is reported as 5.1 fold. For the same binder, the “Span (FUS1p-RFP reporter)” value [6] was 170 fluorescence/A600 (not printed) and the “Top (FUS1p-RFP reporter)” value [6] was 212 fluorescence/A600 (not printed).

KWKWIKFRNTDVIG [Cl peptide ligand #1 KWKWIKFRNTDVIG] was tested, and the “Bttm (FUS1p-RFP reporter)” value [7] was 39.8 fluorescence/A600 (not printed), the “EC50 (FUS1p-RFP reporter)” value [7] was -7.5 log10 M (not printed) and the “Fold Change (FUS1p-RFP reporter)” value [7] was 1.4 fold. The “Span (FUS1p-RFP reporter)” value [7] was 186 fluorescence/A600 (not printed) and the “Top (FUS1p-RFP reporter)” value [7] was 226 fluorescence/A600 (not printed).

For FSWNYRLKWQPIS [Cn peptide ligand #1 FSWNYRLKWQPIS], the “Bttm (FUS1p-RFP reporter)” value [8] was 29.7 fluorescence/A600 (not printed), the “EC50 (FUS1p-RFP reporter)” value [8] was -7.4 log10 M (not printed) and the “Fold Change (FUS1p-RFP reporter)” value [8] was 5.1 fold. For the same binder, the “Span (FUS1p-RFP reporter)” value [8] was 122 fluorescence/A600 (not printed) and the “Top (FUS1p-RFP reporter)” value [8] was 152 fluorescence/A600 (not printed).

KPHWTTYGYYEPQ [Cp peptide ligand #1 KPHWTTYGYYEPQ] was tested, and the “Bttm (FUS1p-RFP reporter)” value [9] was 36.2 fluorescence/A600 (not printed), the “EC50 (FUS1p-RFP reporter)” value [9] was -8.5 log10 M (not printed) and the “Fold Change (FUS1p-RFP reporter)” value [9] was 7 fold. The “Span (FUS1p-RFP reporter)” value [9] was 218 fluorescence/A600 (not printed) and the “Top (FUS1p-RFP reporter)” value [9] was 254 fluorescence/A600 (not printed).

From patent US20220119825A1, “SCALABLE PEPTIDE-GPCR INT[…] SYSTEMS” (THE TRUSTEES OF COLUMBIA UNIVERSITY IN THE CITY OF NEW YORK, priority 2019, published 2022)
